Paper PMC5973702

Molecular target: human voltage-gated K+ channel Kv1.3 with C-terminal FLAG/10Xhis tag, expressed in Tetrahymena thermophila (human) (UniProt P22001)
Assay: fluorescence polarisation

Sequence of UniProt P22001 (P22001 whole entry): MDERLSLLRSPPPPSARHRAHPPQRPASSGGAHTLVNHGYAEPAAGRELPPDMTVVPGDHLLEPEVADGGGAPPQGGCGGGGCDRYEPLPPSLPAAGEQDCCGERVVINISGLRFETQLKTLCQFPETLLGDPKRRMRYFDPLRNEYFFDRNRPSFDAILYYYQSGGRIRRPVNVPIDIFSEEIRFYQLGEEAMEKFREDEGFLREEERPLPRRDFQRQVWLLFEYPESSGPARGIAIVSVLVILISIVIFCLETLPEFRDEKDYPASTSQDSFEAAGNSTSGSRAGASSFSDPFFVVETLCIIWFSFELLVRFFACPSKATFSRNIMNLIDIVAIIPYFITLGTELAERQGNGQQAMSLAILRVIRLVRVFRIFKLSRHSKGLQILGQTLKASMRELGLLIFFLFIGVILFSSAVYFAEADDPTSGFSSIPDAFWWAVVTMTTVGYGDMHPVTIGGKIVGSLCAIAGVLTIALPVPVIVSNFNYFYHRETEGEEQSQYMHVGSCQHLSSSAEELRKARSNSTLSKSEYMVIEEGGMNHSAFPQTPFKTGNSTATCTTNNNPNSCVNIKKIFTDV

Work on “FAM-ShK (Fluorescein 6-carbonyl-labelled Stichodactyla toxin) (peptide)” yielded a Kd of 11.5 nM.
